Measurements from patent US8540999B2, “Allergenic proteins and peptides from Japanese cedar pollen” (Merck Patent GmbH, priority 1991, dated 2013).
“Also recorded” adds a separate entry of the source.

Legend:
IgE antibodies = conditions: Sakaguchi (1990), cited from earlier work
patients' plasma IgE = experiment: Direct binding assay of IgE to Cry j I, Cry j II and recombinant Cry j II (Example 18); set-up: species or system human
Procedure: Costar assay plates were coated with Cry j I or Cry j II at 2 μg/mL or recombinant Cry j II preparation at 10 μg/mL (approximately 20% pure) in a volume of 50 μL overnight at 4° C. The coating antigens were removed and the wells were blocked with 0.5% gelatin, PVP (polyvinyl pyrolidine) 1 mg/mL in PBS, 200 μL/well for 2 hours at room temperature. The anti-Cry j I monoclonal antibody, 4B11, was serially diluted in PBS-Tween 20 starting at a 1:1000 dilution. The human plasma were serially diluted in PBS-Tween at a starting dilution of 1:2. For this set 23 plasma samples from patients symptomatic for Japanese cedar pollen allergy chosen for IgE binding analysis. The first antibody incubation proceeded overnight at 4° C. Following three washes with PBS-Tween the second antibodies were added (biotinylated goat anti-mouse Ig or goat anti-human IgE both at 1:2000) and incubated for two hours at room temperature at 100 μL/well. After washing 3 times, […]. This solution was removed and streptavidin-HRPO diluted to 1:10,000, was added at 100 μL/well. The color was allowed to develop for 2-5 minutes. The reaction was stopped by the addition of 100 μL/well of 1M phosphoric acid. Plates were read on a Microplate IL310 Autoreader (Biotek Instruments, Winooski, Vt.) with a 450 nm filter. The absorbance levels of duplicate wells were averaged. A positive binding result, indicated by a plus sign is determined to be a reading of two-fold or greater above background (no first antibody) at the second dilution of plasma ([…]).

[1] = system: Cry j II reactive T cells; experiment: T cell proliferation assay, Cry j II primed T cell lines (Example 19); type: cell-based, human
Procedure: Long term T cell lines were established by stimulation of 2×10^6 PBL/ml in bulk cultures of complete medium (RPMI-1640, 2 mM L-glutamine, 100 U/ml penicillin/streptomycin, 5×10^−5M 2-mercaptoethanol, and 10 mM HEPES supplemented with 5% heat inactivated human AB serum) with 10 μg/ml of partially purified native Cry j II for 7 days at 37° C. in a humidified 5% CO2 incubator to select for Cry j II reactive T cells. This amount of priming antigen was determined to be optimal for the activation of T cells from most Japanese cedar pollen Cry j II allergic patients. Viable cells were purified by LSM centrifugation and cultured in complete medium supplemented with 5 units recombinant human IL-2/ml and 5 units recombinant human IL-4/ml for up to three weeks until the cells no longer responded to lymphokines and were considered “rested”. The ability of the T cells to proliferate to peptides Cry j IIA (SEQ ID NO: 185) and Cry j IIB (SEQ ID NO: 186), recombinant Cry j II (rCry j II) (SEQ ID NO: 134), purified native Cry j II, was then assessed. For assay, 2×10^4 rested cells were restimulated in the presence of 2×10^4 autologous Epstein-Barr virus (EBV)-transformed B cells (prepared as described in Example 6) (gamma-irradiated with 25,000 RADS) with 2-50 ’g/ml of rCry j II (SEQ ID NO: 134), purified native Cry j II, peptides Cry j IIA (SEQ ID NO: 185) and Cry j IIB (SEQ ID NO: 186), positive control (PHA), negative control (Amb a I.1), in a volume of […] complete medium in duplicate or triplicate wells in 96-well round bottom plates for 2-4 days. […] Each well then received 1 μCi tritiated thymidine for 16-20 hours. The counts incorporated were collected onto glass fiber filter mats and processed for liquid scintillation counting. The maximum response in a titration of each peptide is expressed as the stimulation index (S.I.). The S.I. is the counts per minute (CPM) incorporated by cells in response to peptide, divided by the CPM incorporated by cells in medium only. A positivity index may be calculated by multiplying the mean S.I. (indicated above each bar in FIGS. 42 and 43) by the percentage of individuals responding to the peptide (indicated in parentheses above each bar in FIGS. 42 and 43). […]

Arthus reaction = conditions: Usui et al. (1990); cited from earlier work

Row | frequency of IgE response (patients' plasma IgE; 23 plasma samples, FIG. 40) | plasma IgE binding response (patients' plasma IgE; patient #1034) | Molecule | immunological cross-reactivity with Cry j I (IgE antibodies; Kawashima et al. (1992)) | allergic patients with IgE that only reacted with this allergen (IgE antibodies) [%] | plasma IgE binding response (patients' plasma IgE; patient plasma samples, FIGS. 31-33) | T cell proliferative response ([1]; 9 patients, FIG. 43) | T cell proliferative response ([1]; n=6 patients, FIG. 42) | ability to elicit the Arthus reaction, relative to native Sugi basic protein (Arthus reaction)
1 | less | very strong reactivity | purified native Cry j II: second Japanese cedar pollen allergen, purified native protein (protein) RKVEHSRHDAINIFNVEKYGAVGDGKHDCTEAFSTAWQAACKNPSAMLLVPGSKKFVVNNLFFNGPCQPHFTFKVDGIIAAYQNPASWKNNRIWLQFAKLTGFTLMGKGVIDGQGKQWWAGQCKWVNGREICNDRDRPTAIKFDFSTGLIIQGLKLMNSPEFHLVFGNCEGVKIIGISITAPRDSPNTDGIDIFASKNFHLQKNTIGTGDDCVAIGTGSSNIVIEDLICGPGHGISIGSLGRENSRAEVSYVHVNGAKFIDTQNGLRIKTWQGGSGMASHIIYENVEMINSENPILINQFYCTSASACQNQRSAVQIQDVTYKNIRGTSATAAAIQLKCSDSMPCKDIKLSDISLKLTSGKIASCLNDNANGYFSGHVIPACKNLSPSAKRKESKSHKHPKTVMVENMRAYDKGNRTRILLGSRPPNCTNKCHGCSPCKAKLVIVHRIMPQEYYPQRWICSCHGKIYHP | no immunological cross-reactivity | 14 | binds human IgE of some allergic patients; also recorded: lower overall response | react | respond well | 
2 |  |  | Sugi basic protein (i.e., Cry j I)-pullulan conjugate: Sugi basic protein covalently linked to pullulan, Usui et al. (1990) (conjugate, UniProt P18632 22-374, looked up, pullulan conjugate) Pectate lyase 1: DNPIDSCWRGDSNWAQNRMKLADCAVGFGSSTMGGKGGDLYTVTNSDDDPVNPAPGTLRYGATRDRPLWIIFSGNMNIKLKMPMYIAGYKTFDGRGAQVYIGNGGPCVFIKRVSNVIIHGLYLYGCSTSVLGNVLINESFGVEPVHPQDGDALTLRTATNIWIDHNSFSNSSDGLVDVTLTSTGVTISNNLFFNHHKVMLLGHDDAYSDDKSMKVTVAFNQFGPNCGQRMPRARYGLVHVANNNYDPWTIYAIGGSSNPTILSEGNSFTAPNESYKKQVTIRIGCKTSSSCSNWVWQSTQDVFYNGAYFVSSGKYEGGNIYTKKEAFNVENGNATPQLTKNAGVLTCSLSKRC |  |  |  |  |  | about 1,000 times lower
